Target: rice XA21 receptor kinase (rice)
Assay: cell-based or functional assay

Question: RaxX21-sY (peptide) was tested. Which EC50 of total ROS production over 3 h in Ubi::XA21 rice leaves did it give?
Answer: The EC50 of total ROS production over 3 h in Ubi::XA21 rice leaves was 20 nM.

Question: Which EC50 of total ROS production over 3 h in Ubi::XA21 rice leaves does the source give for RaxX24-sY (peptide) here?
Answer: Its EC50 of total ROS production over 3 h in Ubi::XA21 rice leaves is 30 nM.

Question: With RaxX39-sY (peptide) as the substance, how does the EC50 of total ROS production over 3 h in Ubi::XA21 rice leaves read?
Answer: Its EC50 of total ROS production over 3 h in Ubi::XA21 rice leaves is 70 nM.

Question: How did the EC50 of total ROS production over 3 h in Ubi::XA21 rice leaves turn out when “RaxX60-sY (full-length sulfated recombinant RaxX-His from Xoo PXO99) (ligand)” was run?
Answer: The EC50 of total ROS production over 3 h in Ubi::XA21 rice leaves was 100 nM.

— patent publication US20200048654A1
